Publication PMC3778711, “The central role of mosquito cytochrome P450 CYP6Zs in insecticide detoxification revealed by functional expression and structural modelling” (Biochemical Journal, 2013)

T1: CYP6Z2 (AgCYP6Z2) (Anopheles gambiae, UniProt A8I285)
T1 construct: with NADPH--cytochrome P450 reductase
T1 sequence (A8I285 1-492): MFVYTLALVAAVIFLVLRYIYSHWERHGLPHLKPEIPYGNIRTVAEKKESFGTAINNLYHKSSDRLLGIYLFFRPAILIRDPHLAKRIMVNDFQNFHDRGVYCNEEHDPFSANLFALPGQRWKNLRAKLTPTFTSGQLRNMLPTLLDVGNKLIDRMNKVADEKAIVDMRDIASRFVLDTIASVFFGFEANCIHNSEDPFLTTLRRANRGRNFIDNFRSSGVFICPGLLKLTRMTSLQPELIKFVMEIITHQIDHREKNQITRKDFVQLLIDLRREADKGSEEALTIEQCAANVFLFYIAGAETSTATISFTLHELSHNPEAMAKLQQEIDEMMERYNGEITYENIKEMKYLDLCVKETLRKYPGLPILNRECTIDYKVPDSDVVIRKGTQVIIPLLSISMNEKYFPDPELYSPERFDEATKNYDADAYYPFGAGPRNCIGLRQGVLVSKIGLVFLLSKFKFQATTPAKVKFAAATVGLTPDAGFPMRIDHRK
T1 sequence (Q86QH5 1-679 partner): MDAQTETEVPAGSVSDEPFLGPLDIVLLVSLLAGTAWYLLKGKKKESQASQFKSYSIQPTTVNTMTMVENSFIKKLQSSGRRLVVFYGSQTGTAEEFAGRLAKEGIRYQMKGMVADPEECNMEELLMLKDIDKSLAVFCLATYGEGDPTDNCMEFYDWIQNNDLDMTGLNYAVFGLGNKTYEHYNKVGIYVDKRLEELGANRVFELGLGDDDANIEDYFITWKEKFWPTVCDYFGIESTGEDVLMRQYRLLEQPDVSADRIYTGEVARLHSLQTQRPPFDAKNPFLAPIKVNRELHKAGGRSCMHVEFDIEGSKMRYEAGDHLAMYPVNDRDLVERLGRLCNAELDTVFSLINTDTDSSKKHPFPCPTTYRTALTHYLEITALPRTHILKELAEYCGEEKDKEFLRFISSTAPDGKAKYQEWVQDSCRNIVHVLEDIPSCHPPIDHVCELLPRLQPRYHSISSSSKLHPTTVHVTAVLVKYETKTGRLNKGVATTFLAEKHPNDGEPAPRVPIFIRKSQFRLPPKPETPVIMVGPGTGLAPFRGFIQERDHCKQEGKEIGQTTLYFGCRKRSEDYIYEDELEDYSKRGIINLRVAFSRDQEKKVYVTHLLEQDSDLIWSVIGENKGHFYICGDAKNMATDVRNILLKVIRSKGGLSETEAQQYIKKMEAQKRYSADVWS


Assays:
CYP6Z2 (AgCYP6Z2) = target: T1, CYP6Z2 (AgCYP6Z2); test: reverse-phase HPLC, E. coli membranes; type: biochemical; settings: 10 μM substrate, 0.1 mM NADPH with regeneration system, 5 mM MgCl2, 30°C
[1] = substrate: CCOc1ccc2ccc(=O)oc2c1; test: 7-hydroxycoumarin fluorescence (O-de-ethylation), yeast microsomes; type: biochemical, Aedes aegypti; settings: apparent, 0.1 mM NADPH with regeneration system, 0.1 M phosphate pH 7.4, 30°C, 15 min
Text: 7-hydroxycoumarin fluorescence (O-de-ethylation), yeast microsomes on CYP6Z8 (W(AeR)-CYP6Z8 microsomes; CYP6Z8v1)

[2] = substrate: OCc1cccc(Oc2ccccc2)c1; test: reverse-phase HPLC, yeast microsomes; type: biochemical, Aedes aegypti; settings: 0.1 mM NADPH with regeneration system, 5 mM MgCl2, 30°C
[3] = substrate: CCOc1ccc2nc3ccc(=O)cc-3oc2c1; test: resorufin fluorescence, yeast microsomes; type: biochemical, Aedes aegypti; settings: apparent, 0.1 mM NADPH with regeneration system, 0.1 M phosphate pH 7.4, 30°C, 15 min
Text: (§1) resorufin fluorescence, yeast microsomes on CYP6Z8 (W(AeR)-CYP6Z8 microsomes; CYP6Z8v1)

[4] = substrate: O=c1ccc2nc3ccc(OCc4ccccc4)cc3oc-2c1; test: resorufin fluorescence, yeast microsomes; type: biochemical, Aedes aegypti; settings: apparent, 0.1 mM NADPH with regeneration system, 0.1 M phosphate pH 7.4, 30°C, 15 min
Text: as §1

[5] = substrate: CCCCCOc1ccc2nc3ccc(=O)cc-3oc2c1; test: resorufin fluorescence, yeast microsomes; type: biochemical, Aedes aegypti; settings: apparent, 0.1 mM NADPH with regeneration system, 0.1 M phosphate pH 7.4, 30°C, 15 min
Text: as §1

Row | Molecule | reverse-phase HPLC, E. coli membranes (CYP6Z2 (AgCYP6Z2)) | Km [1] | kcat [1] | Km [2] | kcat [2] | Km [3] | kcat [3] | Km [4] | kcat [4] | Km [5] | kcat [5]
1 | O=Cc1cccc(Oc2ccccc2)c1 [PBAld] | demonstrated the ability of CYP6Z2 to metabolize both PBAlc and PBAld |  |  |  |  |  |  |  |  |  | 
2 | OCc1cccc(Oc2ccccc2)c1 [PBAlc] | demonstrated the ability of CYP6Z2 to metabolize both PBAlc and PBAld |  |  |  |  |  |  |  |  |  | 
3 | CYP6Z8 (W(AeR)-CYP6Z8 microsomes; CYP6Z8v1) (Aedes aegypti) (protein, full-length, no protein modification; codon-optimised gene in S. cerevisiae W(AeR) with Ae. aegypti CPR integrated; microsomes; with NADPH--cytochrome P450 reductase) MFIYTFALFWLAVAFAIRYIYSYWDRNGLPSIKPHIPYGNLKTVANRTESFGVATCDLYWKSKDRLVGIYLFFRPAVLIRDAHLAQQIMTTDFSHFHDRGVFCNEEVDPFSANLFALAGKRWRNLRNKFTPLFTGGQLRCMMPTILNVGHKLQNVLEPAAKKQEVLEIRELVSRCVLDIIASVFFGFEANCINDPNDAFIQNLRELQYDGFFNNLRAAATFICPELLKLTRISSLSPEMIRFVTDIVTKQIEHREKNNVTRKDFIQLLIDLRREDANNNEATLGLEECAANVFLFYVAGSDTSTSAVAFTLHELTQNVETMEKLQTEIDEMLVKTSGELTYDGIKEMSYLDLCVKETLRKYPGLAILNRECTKSYAVPNSNIVLKKGTQVVIPLLAYGMDEKYFPEPDRYLPERFDKSTKNYDEKAFYPFGEGPRNCIAFRMGVMVSKICLVLLLSRFNFEATRGPKINFTPSTVALLPKGGIPVKISIR |  | 5.90 ± 0.90 µM | 0.0163 ± 0.00067 s⁻¹ | 15.1 ± 2.9 µM | 0.011 ± 0.0005 s⁻¹ | 2.39 ± 0.28 µM | 0.0198 ± 0.00083 s⁻¹ | 0.13 ± 0.02 µM | 0.00162 ± 3.3e-05 s⁻¹ | 13.96 ± 3.14 µM | 0.00217 ± 0.00017 s⁻¹
